Assay results: paper PMC6594998, “Inhibition of CRISPR-Cas9 ribonucleoprotein complex assembly by anti-CRISPR AcrIIC2”

B1: full length sgRNA (filter binding) (structured_RNA)
RNA: GGUCUGUAAGCGGAUGCCAUAUGGUUGUAGCUCCCUUUCUCGAAAGAGAACCGUUGCUACAAUAAGGCCGUCUGAAAAGAUGUGCCGCAACGCUCUGCCCCUUAAAGCUUCUGCUUUAACGGGCUU

Experiments:
[1] = molecular target: T1, Nme1Cas9 (Neisseria meningitidis, UniProt C9X1G5 1-1082); experiment: filter binding; no AcrIIC2Nme; Filter binding: 20 mM Tris pH 7.5, 100 mM KCl, 5 mM MgCl2, 1 mM DTT, 5% glycerol, 0.01% Igepal, 10 ug/mL yeast tRNA, 10 ug/mL BSA, 37 C, 30 min; ITC: 300 mM NaCl, 20 mM Tris pH 7.5, 20 C; gel filtration: 300 mM NaCl, 20 mM Tris pH 7.5; pull-down: 50 mM Tris pH 7.5, 200 mM NaCl, 5% glycerol, 20 mM imidazole; settings: protein: recombinant; label: radiolabeled; hairpin
T1 sequence: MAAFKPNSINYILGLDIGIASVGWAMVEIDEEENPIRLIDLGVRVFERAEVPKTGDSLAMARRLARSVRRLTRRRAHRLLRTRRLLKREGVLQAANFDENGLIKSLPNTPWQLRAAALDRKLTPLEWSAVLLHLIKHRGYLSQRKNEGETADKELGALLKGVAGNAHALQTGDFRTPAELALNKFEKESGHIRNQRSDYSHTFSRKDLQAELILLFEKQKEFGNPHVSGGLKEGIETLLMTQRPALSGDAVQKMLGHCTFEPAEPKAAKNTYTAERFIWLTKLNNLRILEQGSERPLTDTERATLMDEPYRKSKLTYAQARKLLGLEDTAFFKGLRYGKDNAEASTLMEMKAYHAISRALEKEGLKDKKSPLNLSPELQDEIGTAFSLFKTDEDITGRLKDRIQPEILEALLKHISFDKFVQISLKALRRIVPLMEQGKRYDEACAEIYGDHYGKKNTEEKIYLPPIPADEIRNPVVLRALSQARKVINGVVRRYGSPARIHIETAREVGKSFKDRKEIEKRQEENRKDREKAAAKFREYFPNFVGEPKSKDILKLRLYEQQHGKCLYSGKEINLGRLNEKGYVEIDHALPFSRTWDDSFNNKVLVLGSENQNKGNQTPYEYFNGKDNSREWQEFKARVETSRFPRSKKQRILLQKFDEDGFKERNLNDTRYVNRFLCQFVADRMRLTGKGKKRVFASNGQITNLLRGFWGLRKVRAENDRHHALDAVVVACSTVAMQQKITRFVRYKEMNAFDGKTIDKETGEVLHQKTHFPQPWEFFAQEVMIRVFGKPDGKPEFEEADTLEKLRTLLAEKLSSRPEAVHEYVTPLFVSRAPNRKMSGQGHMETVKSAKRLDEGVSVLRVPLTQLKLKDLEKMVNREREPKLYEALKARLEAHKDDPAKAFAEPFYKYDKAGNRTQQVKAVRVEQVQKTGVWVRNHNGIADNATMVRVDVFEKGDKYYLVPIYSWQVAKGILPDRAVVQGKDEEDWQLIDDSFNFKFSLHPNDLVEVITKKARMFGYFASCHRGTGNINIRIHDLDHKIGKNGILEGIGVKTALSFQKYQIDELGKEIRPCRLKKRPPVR

[2] = molecular target: T1, Nme1Cas9; experiment: filter binding; no AcrIIC2Nme; 5 mM MgCl2; Filter binding: 20 mM Tris pH 7.5, 100 mM KCl, 5 mM MgCl2, 1 mM DTT, 5% glycerol, 0.01% Igepal, 10 ug/mL yeast tRNA, 10 ug/mL BSA, 37 C, 30 min; ITC: 300 mM NaCl, 20 mM Tris pH 7.5, 20 C; gel filtration: 300 mM NaCl, 20 mM Tris pH 7.5; pull-down: 50 mM Tris pH 7.5, 200 mM NaCl, 5% glycerol, 20 mM imidazole; settings: protein: recombinant; label: radiolabeled; sgRNA with repeat:anti-repeat hairpin and stem loops 1 and 2

Row | Binder | binding result [1] | Kd [2]
1 | GGUUGUAGCUCCCUUUCUCGAAAGAGAACCGUUGCUACAAUAA (structured_RNA) [repeat:anti-repeat (cr:tracr)] | binds | 
2 | B1 |  | 0.24 ± 0.14 nM
